The kon is the rate constant with which the complex forms.

Experiment [1] has as its target CusB N-terminal fragment residues 1-61, S(Met) (unlabelled) (Escherichia coli).
For experiment [2] the target is unchanged. The experiment in a line: rapid freeze quench X-ray absorption spectroscopy (RFQ-XAS, Se K edge); 23 °C; 1:2 mixture of apo-SeM-CusF with Cu(I)-loaded S(met)-CusB-NT, 50 mM HEPES pH 7.5, 5% ethylene glycol, liquid ethane quench, 15 ms to 30 s; Se-Cu peak height fitted (DYNAFIT) to rapid protein-protein association followed by intra-complex metal transfer; the complex shares one Cu(I) between ligands of both proteins.

Sequence of CusB N-terminal fragment residues 1-61, S(Met) (unlabelled) (Escherichia coli) (P77239 29-89 limits assumed): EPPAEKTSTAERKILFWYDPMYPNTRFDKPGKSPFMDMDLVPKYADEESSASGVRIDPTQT

In experiment [1], “CusF(6-88) M8I M59I double mutant, S(Met) (unlabelled) (domain or fragment)” yielded a fast phase of the quenching of the CusF W44 344 nm emission, stopped-flow fluorescence, 4 °C, apo-S(met)-CusF mixed with Cu(I)-S(Met)-CusB-NT of 165 s⁻¹ and a slow phase of the quenching of the CusF W44 344 nm emission, stopped-flow fluorescence, 4 °C, apo-S(met)-CusF mixed with Cu(I)-S(Met)-CusB-NT of 0.012 s⁻¹.
As for “selenomethionine-labelled CusF(6-88) M8I M59I double mutant (domain or fragment)”, in experiment [2], the association rate constant (kon) turned out to be 1e+06 M⁻¹ s⁻¹.

The values above are taken from paper PMC6235853.
